Laboratory results: patent US11021532 (CENTIVAX, dated 2021)

Legend:
[1] = molecular target: SARS CoV-2 spike protein on pseudovirus (SARS-CoV-2, UniProt P0DTC2 14-1273); assay: cell-based or functional assay
[2] = molecular target: T1, SARS-CoV-2 Receptor Binding Domain (RBD) protein (SARS-CoV-2); assay: SPR (Carterra LSA), scFv captured via anti-V5, RBD as analyte
[3] = molecular target: T1, SARS-CoV-2 Receptor Binding Domain …; assay: SPR (Carterra LSA), scFv captured via anti-V5, RBD as analyte, 1:1 fit

B1: COVID19_P23_G11 (scFv, V domains shown)
VH: QVQLVQSGAEVKKPGASVKVSCKASGGTFRSTAISWVRQAPGQGLEWMGWMNPNSGNTGYAQKFQGRVTMTRDTSTSTVYMELSSLRSEDTAVYYCARAGYSSSSGYYYYGMDVWGKGTTVTVSS
VL: DIQMTQSPSSLSASVGDRVTITCRASQGISNNLNWYQQKPGKAPKLLIYAASSLQSGVPSRFSGSGSGTDFTLTISSLQPEDFATYYCQQYDTFPLTFGQGTKVEIKR
[1]
  IC50 [µg/mL] pseudotyped lenti neut: 0.26 µg/mL

B2: COVID19_P23_G12 (scFv, V domains shown)
VH: QVQLVQSGAEVKKPGASVKVSCKASGYIFTSYPIHWVRQAPGQGLEWMGWMNPNSGNTGYAQKFQGRVTMTRDTSTSTVYMELSSLRSEDTAVYYCARDRGSYDTDAFDIWGQGTMVTVSS
VL: DIQMTQSPSSLSASVGDRVTITCRASQDISNYLNWYQQKPGKAPKLLIYAASNLQSGVPSRFSGSGSGTDFTLTISSLQPEDFATYYCQQANSFPSTFGQGTKLEIKR
[2]
  Kd: < 50 nM
[3]
  Kd: 0.37 nM
[1]
  IC50 [µg/mL] pseudotyped lenti neut: 15.9 µg/mL

B3: COVID19_P24_G06 (scFv, V domains shown)
VH: QVQLVQSGAEVKKPGASVKVSCKASGYTFTNYGISWVRQAPGQGLEWMGWISARNGNTNYAQKFQGRVTMTRDTSTSTVYMELSSLRSEDTAVYYCTTDPVLEWFGYSIWGQGTMVTVSS
VL: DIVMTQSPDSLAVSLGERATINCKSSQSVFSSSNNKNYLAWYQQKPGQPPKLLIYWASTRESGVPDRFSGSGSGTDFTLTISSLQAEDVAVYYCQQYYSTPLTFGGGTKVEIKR
[1]
  IC50 [µg/mL] pseudotyped lenti neut: 0.16 µg/mL

B4: COVID19_P24_C01 (scFv, V domains shown)
VH: QVQLVQSGAEVKKPGASVKVSCKASGYTFTRYYIHWVRQAPGQGLEWMGIINPSGGSTTYAQKFQGRVTMTRDTSTSTVYMELSSLRSEDTAVYYCAKGAPHDYIWGSYRPDAFDIWGQGTMVTVSS
VL: DIQMTQSPSSLSASVGDRVTITCRASENIDSWLAWYQQKPGKAPKLLIYEASTLESGVPSRFSGSGSGTDFTLTISSLQPEDFATYYCHQYLSSPETFGQGTKVEIKR
[1]
  IC50 [µg/mL] pseudotyped lenti neut: 0.92 µg/mL

B5: COVID19_P24_D08 (scFv, V domains shown)
VH: QVQLVQSGAEVKKPGASVKVSCKASGYTFTSYDINWVRQAPGQGLEWMGIIDPSGGSTSYAQKFQGRVTMTRDTSTSTVYMELSSLRSEDTAVYYCATVTPGYGMDVWGQGTTVTVSS
VL: DIQMTQSPSSLSASVGDRVTITCRASQTIYSYLNWYQQKPGKAPKLLIYDASNLETGVPSRFSGSGSGTDFTLTISSLQPEDFATYYCQQAISFPLTFGGGTKLEIKR
[1]
  IC50 [µg/mL] pseudotyped lenti neut: 17 µg/mL
